Measured values taken from patent publication US20100235935.
Positions count from the first letter of the chain named.

Assays:
[1] = test system: T1, pladin mutant A5 (Lys13→Ala)
T1 sequence: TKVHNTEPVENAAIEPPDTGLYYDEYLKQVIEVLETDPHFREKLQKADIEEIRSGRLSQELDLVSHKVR

[2] = test system: T2, recombinant pladin (plasma anti-diabetic nucb2 peptide)
T2 sequence: T1 sequence with A13R

recombinant nesfatin-1 = biological target: T3, recombinant nesfatin-1 (UniProt P81117)
T3 sequence: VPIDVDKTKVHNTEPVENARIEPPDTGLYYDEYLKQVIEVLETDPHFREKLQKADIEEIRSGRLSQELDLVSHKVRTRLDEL

acetylated rPladin = test system: T4, acetylated rPladin
T4 sequence: T1 sequence with A13R

[3] = test system: T5, pladin mutant A4 (Lys28→Ala)
T5 sequence: T1 sequence with A13R, K28A

Sequence of plasmin (P00747 20-580): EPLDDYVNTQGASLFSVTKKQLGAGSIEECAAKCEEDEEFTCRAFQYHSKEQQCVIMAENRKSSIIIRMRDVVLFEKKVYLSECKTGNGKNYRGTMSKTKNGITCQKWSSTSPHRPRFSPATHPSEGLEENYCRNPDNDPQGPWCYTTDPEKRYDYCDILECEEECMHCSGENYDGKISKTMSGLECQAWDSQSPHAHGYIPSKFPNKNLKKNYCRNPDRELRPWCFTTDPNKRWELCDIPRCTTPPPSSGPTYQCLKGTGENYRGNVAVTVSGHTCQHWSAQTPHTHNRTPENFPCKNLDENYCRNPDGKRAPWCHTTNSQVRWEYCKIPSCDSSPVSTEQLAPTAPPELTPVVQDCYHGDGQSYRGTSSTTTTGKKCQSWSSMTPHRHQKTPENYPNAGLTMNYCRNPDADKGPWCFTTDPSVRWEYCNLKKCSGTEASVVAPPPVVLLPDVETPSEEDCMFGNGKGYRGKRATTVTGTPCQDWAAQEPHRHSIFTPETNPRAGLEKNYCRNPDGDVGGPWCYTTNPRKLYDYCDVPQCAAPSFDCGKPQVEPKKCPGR
Sequence of plasmin (P00747 581-810): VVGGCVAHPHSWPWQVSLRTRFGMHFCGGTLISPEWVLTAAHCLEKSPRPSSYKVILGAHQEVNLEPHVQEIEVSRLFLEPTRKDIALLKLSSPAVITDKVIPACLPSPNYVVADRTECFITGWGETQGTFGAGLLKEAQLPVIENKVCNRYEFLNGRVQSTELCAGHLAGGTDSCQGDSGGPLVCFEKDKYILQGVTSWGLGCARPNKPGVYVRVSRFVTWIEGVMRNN

plasmin was tested, and the “plasmin proteolysis in vitro” value [1] was “resistant to plasmin proteolysis”, the “degradation on incubation with plasmin in vitro” value [2] was “when rPladin was incubated with plasmin, it was rapidly degraded” and the “digestion by plasmin in vitro” value (recombinant nesfatin-1) was “Nesfatin-1 was completely digested by plasmin within 2 hours”. For the same substance, the “plasmin proteolysis in vitro” value (acetylated rPladin) was “resistant to plasmin proteolysis” and the “plasmin proteolysis in vitro” value [3] was “resistant to plasmin proteolysis”.
